No end group written: not given here.

The source of these data is patent US20240417439A1, “RECOMBINANT POLYPEPTIDE FOR DISRUPTING INTERACTION OF EAG2 AND KVß2 AND THERAPEUTIC APPLICATIONS THEREOF IN CANCER TREATMENT” (The Hospital for Sick Children, priority 2021, published 2024).

Data set [1] can be described thus: peptide treatment of non-tumor-bearing mice. The class given is in vivo. The procedure:
To further determine the impact of peptide treatment on mouse physiology, non-tumor-bearing mice were treated with K59-78^TAT or K90-114^TAT.

Data set [2] has as its target T1, human voltage-gated potassium channel subfamily H member 5 (KCNH5, EAG2) (human, UniProt Q8NCM2 1-988).
T1 construct: Full length EAG2 expressed in HEK293T cells and tested by co-IP from lysates; This id also stands for endogenous human EAG2 in lysates of GBM cells and of human fetal neural progenitor cells; also called full length EAG2
T1 sequence: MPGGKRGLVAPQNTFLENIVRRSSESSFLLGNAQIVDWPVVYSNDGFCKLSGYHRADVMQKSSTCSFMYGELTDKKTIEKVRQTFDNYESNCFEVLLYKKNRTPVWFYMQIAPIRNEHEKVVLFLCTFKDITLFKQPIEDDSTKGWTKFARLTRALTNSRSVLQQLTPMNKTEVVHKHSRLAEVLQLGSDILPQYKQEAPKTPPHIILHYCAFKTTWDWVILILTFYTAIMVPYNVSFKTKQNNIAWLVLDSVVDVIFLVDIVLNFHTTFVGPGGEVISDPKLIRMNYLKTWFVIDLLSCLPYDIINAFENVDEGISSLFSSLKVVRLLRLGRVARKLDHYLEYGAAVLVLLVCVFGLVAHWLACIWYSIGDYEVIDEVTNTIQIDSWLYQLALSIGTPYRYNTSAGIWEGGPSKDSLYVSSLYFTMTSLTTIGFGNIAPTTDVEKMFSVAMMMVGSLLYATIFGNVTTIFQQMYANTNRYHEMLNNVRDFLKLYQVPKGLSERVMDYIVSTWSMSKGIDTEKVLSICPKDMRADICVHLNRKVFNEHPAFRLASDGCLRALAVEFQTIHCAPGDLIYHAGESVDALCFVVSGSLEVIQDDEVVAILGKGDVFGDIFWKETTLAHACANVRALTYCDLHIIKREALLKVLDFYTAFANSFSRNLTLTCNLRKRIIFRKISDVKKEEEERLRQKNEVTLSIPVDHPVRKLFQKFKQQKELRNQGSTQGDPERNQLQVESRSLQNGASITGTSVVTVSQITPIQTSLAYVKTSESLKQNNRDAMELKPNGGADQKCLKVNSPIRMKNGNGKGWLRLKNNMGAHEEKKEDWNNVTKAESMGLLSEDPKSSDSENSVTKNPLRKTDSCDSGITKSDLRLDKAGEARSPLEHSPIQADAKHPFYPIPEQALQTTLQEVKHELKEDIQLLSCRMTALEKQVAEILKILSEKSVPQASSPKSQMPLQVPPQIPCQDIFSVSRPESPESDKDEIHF
Briefly: co-IP of overexpressed proteins in HEK293T cells.

Data set [3] addresses T1, human voltage-gated potassium channel …. Briefly: co-IP in HEK293T cells.
The target is the same in data set [4]. In words: co-IP in HEK293T cells (FIG. 26).
Protocol: Co-IPs of overexpressed proteins are performed using HEK293T cells.

“GRKKRRQRRRPQGSGSGSYAAGKAEVVLGNIIKKKGWRRSSLV [K90-114^TAT]”: the “pathological features of internal organs (heart, kidney, liver, lung)” value in data set [1] was “did not reveal pathological features”. Besides, in data set [1] (K59-78^TAT versus K90-114^TAT), the body weight result is “comparable body weight” and the survival result is “comparable”.

B1: Kvß2 truncation mutant f5 (239-316 aa) (other)
chain: GAMTWSPLACGIVSGKYDSGIPPYSRASLKGYQWLKDKILSEEGRRQQAKLKELQAIAERLGCTLPQLAIAWCLRNEG
notes: Expressed in HEK293T cells
Take B1: the binding result in data set [2] is reported as “no binding”.

B2: Kvβ2 isoform 3 (other, human, UniProt Q13303-3 1-415, looked up)
chain: MLSMTYSESLRSVSSRCHSEWALHPVRQTDTLELQRLREVRAAAQARNMESFLRMHGLSLDGCTAQRTGMKYRNLGKSGLRVSCLGLGTWVTFGGQITDEMAEQLMTLAYDNGINLFDTAEVYAAGKAEVVLGNIIKKKGWRRSSLVITTKIFWGGKAETERGLSRKHIIEGLKASLERLQLEYVDVVFANRPDPNTPMEGDPFSSSKSRTFIIEETVRAMTHVINQGMAMYWGTSRWSSMEIMEAYSVARQFNLTPPICEQAEYHMFQREKVEVQLPELFHKIGVGAMTWSPLACGIVSGKYDSGIPPYSRASLKGYQWLKDKILSEEGRRQQAKLKELQAIAERLGCTLPQLAIAWCLRNEGVSSVLLGASNADQLMENIGAIQVLPKLSSSIIHEIDSILGNKPYSKKDYRS
notes: Only the isoform number is printed; Whether it matches the UniProt isoform numbering is not confirmed
Consider B2, for which, in data set [3], the binding result is given as “no binding”.

B3: Kvß2 isoform 4 (other)
chain: MAEQLMTLAYDNGINLFDTAEVYAAGKAEVVLGNIIKKKGWRRSSLVITTKIFWGGKAETERGLSRKHIIEGLKASLERLQLEYVDVVFANRPDPNTPMEETVRAMTHVINQGMAMYWGTSRWSSMEIMEAYSVARQFNLTPPICEQAEYHMFQREKVEVQLPELFHKIGVGAMTWSPLACGIVSGKYDSGIPPYSRASLKGYQWLKDKILSEEGRRQQAKLKELQAIAERLGCTLPQLAIAWCLRNEGVSSVLLGASNADQLMENIGAIQVLPKLSSSIIHEIDSILGNKPYSKKDYRS
notes: Expressed in HEK293T cells; also called Kvβ2 isoform 4; Kvß2 splice isoform 4
Regarding B3, the binding result in data set [3] is given as “binds”.

B4: Kvβ2 isoform 2 (other, human, UniProt Q13303-2 1-353, looked up)
chain: MYPESTTGSPARLSLRQTGSPGMIYRNLGKSGLRVSCLGLGTWVTFGGQITDEMAEQLMTLAYDNGINLFDTAEVYAAGKAEVVLGNIIKKKGWRRSSLVITTKIFWGGKAETERGLSRKHIIEGLKASLERLQLEYVDVVFANRPDPNTPMEETVRAMTHVINQGMAMYWGTSRWSSMEIMEAYSVARQFNLTPPICEQAEYHMFQREKVEVQLPELFHKIGVGAMTWSPLACGIVSGKYDSGIPPYSRASLKGYQWLKDKILSEEGRRQQAKLKELQAIAERLGCTLPQLAIAWCLRNEGVSSVLLGASNADQLMENIGAIQVLPKLSSSIIHEIDSILGNKPYSKKDYRS
notes: as for B2
Turning to B4, the binding result in data set [3] is on record as “no binding”.

B5: Kvß2 truncation mutant f2 (79-316 aa) (other)
chain: NGINLFDTAEVYAAGKAEVVLGNIIKKKGWRRSSLVITTKIFWGGKAETERGLSRKHIIEGLKASLERLQLEYVDVVFANRPDPNTPMEETVRAMTHVINQGMAMYWGTSRWSSMEIMEAYSVARQFNLTPPICEQAEYHMFQREKVEVQLPELFHKIGVGAMTWSPLACGIVSGKYDSGIPPYSRASLKGYQWLKDKILSEEGRRQQAKLKELQAIAERLGCTLPQLAIAWCLRNEG
notes: Expressed in HEK293T cells
With B5, in data set [4], the binding result is “binds”.

B6: Kvß2 truncation mutant f9 (1-355 aa) (other)
chain: MYPESTTGSPARLSLRQTGSPGMIYSTRYGSPKRQLQFYRNLGKSGLRVSCLGLGTWVTFGGQITDEMAEQLMTLAYDNGINLFDTAEVYAAGKAEVVLGNIIKKKGWRRSSLVITTKIFWGGKAETERGLSRKHIIEGLKASLERLQLEYVDVVFANRPDPNTPMEETVRAMTHVINQGMAMYWGTSRWSSMEIMEAYSVARQFNLTPPICEQAEYHMFQREKVEVQLPELFHKIGVGAMTWSPLACGIVSGKYDSGIPPYSRASLKGYQWLKDKILSEEGRRQQAKLKELQAIAERLGCTLPQLAIAWCLRNEGVSSVLLGASNADQLMENIGAIQVLPKLSSSIIHEIDSIL
notes: Expressed in HEK293T cells
Take B6: in data set [2], the binding result is on record as “no binding”.

B7: Kvß2 truncation mutant f4 (79-158 aa) (other)
chain: NGINLFDTAEVYAAGKAEVVLGNIIKKKGWRRSSLVITTKIFWGGKAETERGLSRKHIIEGLKASLERLQLEYVDVVFAN
notes: Expressed in HEK293T cells
With B7, in data set [4], the binding result was “binds”.

B8: Kvß2 truncation mutant f8 (1-342 aa) (other)
chain: MYPESTTGSPARLSLRQTGSPGMIYSTRYGSPKRQLQFYRNLGKSGLRVSCLGLGTWVTFGGQITDEMAEQLMTLAYDNGINLFDTAEVYAAGKAEVVLGNIIKKKGWRRSSLVITTKIFWGGKAETERGLSRKHIIEGLKASLERLQLEYVDVVFANRPDPNTPMEETVRAMTHVINQGMAMYWGTSRWSSMEIMEAYSVARQFNLTPPICEQAEYHMFQREKVEVQLPELFHKIGVGAMTWSPLACGIVSGKYDSGIPPYSRASLKGYQWLKDKILSEEGRRQQAKLKELQAIAERLGCTLPQLAIAWCLRNEGVSSVLLGASNADQLMENIGAIQVLPK
notes: Expressed in HEK293T cells
B8: the binding result in data set [2] is “binds”.

B9: Kvß2 truncation mutant f3 (239-367 aa) (other)
chain: GAMTWSPLACGIVSGKYDSGIPPYSRASLKGYQWLKDKILSEEGRRQQAKLKELQAIAERLGCTLPQLAIAWCLRNEGVSSVLLGASNADQLMENIGAIQVLPKLSSSIIHEIDSILGNKPYSKKDYRS
notes: Expressed in HEK293T cells
For B9, the binding result in data set [2] was “no binding”.

B10: Kvß2 truncation mutant f6 (317-367 aa) (other)
chain: VSSVLLGASNADQLMENIGAIQVLPKLSSSIIHEIDSILGNKPYSKKDYRS
notes: Expressed in HEK293T cells
On to B10, for which, in data set [2], the binding result was “no binding”.

B11: Kvß2 truncation mutant f1 (1-158 aa) (other)
chain: MYPESTTGSPARLSLRQTGSPGMIYSTRYGSPKRQLQFYRNLGKSGLRVSCLGLGTWVTFGGQITDEMAEQLMTLAYDNGINLFDTAEVYAAGKAEVVLGNIIKKKGWRRSSLVITTKIFWGGKAETERGLSRKHIIEGLKASLERLQLEYVDVVFAN
notes: Expressed in HEK293T cells
With B11, the binding result in data set [2] is “binds”.

B12: Kvβ2 isoform 5 (other, human, UniProt Q13303-5 1-395, looked up)
chain: MYPESTTGSPARLSLRQTGSPGMIYSTRYGSPKRQLQFYRNLGKSGLRVSCLGLGTWVTFGGQITDEMAEQLMTLAYDNGINLFDTAEVYAAGKAEVVLGNIIKKKGWRRSSLVITTKIFWGGKAETERGLSRKHIIEGLKASLERLQLEYVDVVFANRPDPNTPMEETVRAMTHVINQGMAMYWGTSRWSSMEIMEAYSVARQFNLTPPICEQAEYHMFQREKVEVQLPELFHKIGVGAMTWSPLACGIVSGKYDSGIPPYSRASLKGYQWLKDKILSEEGRRQQAKLKELQAIAERLGCTLPQLAIAWCLRNEGVSSVLLGASNADQLMENIGAIQVRVRGPAGQRAHPSPSPVQCILPGSSCVPGSVLGTQDAPVNHQSCAPGELAFQQEQT
notes: as for B2
Turning to B12, the binding result in data set [3] is recorded as “no binding”.

B13: Kvß2 truncation mutant f7 (1-316 aa) (other)
chain: MYPESTTGSPARLSLRQTGSPGMIYSTRYGSPKRQLQFYRNLGKSGLRVSCLGLGTWVTFGGQITDEMAEQLMTLAYDNGINLFDTAEVYAAGKAEVVLGNIIKKKGWRRSSLVITTKIFWGGKAETERGLSRKHIIEGLKASLERLQLEYVDVVFANRPDPNTPMEETVRAMTHVINQGMAMYWGTSRWSSMEIMEAYSVARQFNLTPPICEQAEYHMFQREKVEVQLPELFHKIGVGAMTWSPLACGIVSGKYDSGIPPYSRASLKGYQWLKDKILSEEGRRQQAKLKELQAIAERLGCTLPQLAIAWCLRNEG
notes: Expressed in HEK293T cells
As for B13, in data set [2], the binding result is recorded as “binds”.
